Laboratory results published in patent US20240043537A1 (MacroGenics, published 2024).
Positions count from the first letter of the chain named.

T1: 5T4 on A498 cells (UniProt Q13641 32-420, limits assumed)
T1 construct: whole, on cells; also called 5T4-expressing A498 cells; A-498 kidney carcinoma (5T4)
T1 sequence (looked up): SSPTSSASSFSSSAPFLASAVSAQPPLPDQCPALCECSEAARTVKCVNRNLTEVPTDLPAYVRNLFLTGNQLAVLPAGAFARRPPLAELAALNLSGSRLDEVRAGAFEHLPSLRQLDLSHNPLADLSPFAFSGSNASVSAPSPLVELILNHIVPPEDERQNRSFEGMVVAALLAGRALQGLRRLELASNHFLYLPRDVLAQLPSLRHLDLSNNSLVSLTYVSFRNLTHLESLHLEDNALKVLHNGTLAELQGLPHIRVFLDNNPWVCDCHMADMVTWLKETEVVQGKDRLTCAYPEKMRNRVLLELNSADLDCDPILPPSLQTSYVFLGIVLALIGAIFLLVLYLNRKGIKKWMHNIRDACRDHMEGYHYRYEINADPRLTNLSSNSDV

B1: DART-A-M26 (bispecific antibody)
chain 1: DFVMTQSPDSLAVSLGERVTMSCKSSQSLLNSGNQKNYLTWYQQKPGQPPKLLIYWASTRESGVPDRFSGSGSGTDFTLTISSLQAEDVAVYYCQNDYSYPYTFGQGTKLEIKGGGSGGGGEVQLVESGGGLVQPGGSLRLSCAASGFTFSTYAMNWVRQAPGKGLEWVGRIRSKYNNYATYYADSVKDRFTISRDDSKNSLYLQMNSLKTEDTAVYYCVRHGNFGNSYVSWFAYWGQGTLVTVSSGGCGGGKVAALKEKVAALKEKVAALKEKVAALKE
chain 2: QAVVTQEPSLTVSPGGTVTLTCRSSTGAVTTSNYANWVQQKPGQAPRGLIGGTNGRAPWTPARFSGSLLGGKAALTITGAQAEDEADYYCALWYSNLWVFGGGTKLTVLGGGGSGGGGEVQLVQSGAELKKPGASVKVSCKASGYTFTDYYMKWVRQAPGQGLEWIGDIIPSNGATFYNQKFKGRVTITVDKSTSTAYMELSSLRSEDTAVYYCARSHLLRASWFAYWGQGTLVTVSSGGCGGGEVAALEKEVAALEKEVAALEKEVAALEK
notes: also called CD123 x CD3 DART-A-type diabody with CD3 mAb 1 M26
B2: 5T4-WT (bispecific antibody)
chain 1: DIQMTQSPSSLSASVGDRVTITCRASQGISNYLAWFQQKPGKAPKSLIYRANRLQSGVPSRFSGSGSGTDFTLTISSLQPEDVATYYCLQYDDFPWTFGQGTKLEIKGGGSGGGGEVQLVESGGGLVQPGGSLRLSCAASGFTFSTYAMNWVRQAPGKGLEWVGRIRSKYNNYATYYADSVKGRFTISRDDSKNSLYLQMNSLKTEDTAVYYCVRHGNFGNSYVSWFAYWGQGTLVTVSSGGCGGGEVAALEKEVAALEKEVAALEKEVAALEKGGGDKTHTCPPCPAPEAAGGPSVFLFPPKPKDTLMISRTPEVTCVVVDVSHEDPEVKFNWYVDGVEVHNAKTKPREEQYNSTYRVVSVLTVLHQDWLNGKEYKCKVSNKALPAPIEKTISKAKGQPREPQVYTLPPSREEMTKNQVSLWCLVKGFYPSDIAVEWESNGQPENNYKTTPPVLDSDGSFFLYSKLTVDKSRWQQGNVFSCSVMHEALHNHYTQKSLSLSPGK
chain 2: QAVVTQEPSLTVSPGGTVTLTCRSSTGAVTTSNYANWVQQKPGQAPRGLIGGTNKRAPWTPARFSGSLLGGKAALTITGAQAEDEADYYCALWYSNLWVFGGGTKLTVLGGGGSGGGGQVQLVQSGAEVKKPGASVKVSCKASGYTFTSFWMHWVRQAPGQGLEWMGRIDPNRGGTEYNEKAKSRVTMTADKSTSTAYMELSSLRSEDTAVYYCAGGNPYYPMDYWGQGTTVTVSSGGCGGGKVAALKEKVAALKEKVAALKEKVAALKE
chain 3: not shown
notes: Three-chain diabody with Fc; Kabat position 65 of the CD3 VH is G in this construct; also called 5T4 x CD3 mAb 1 DART-B-type diabody
B3: 5T4-M18 (bispecific antibody)
chain 1: B2 chain 1 with A148G, G183D
chain 2: B2 chain 2
chain 3: not shown
notes: Three-chain diabody with Fc; also called 5T4 x CD3 mAb 1 M18 DART-B-type diabody
B4: 5T4-M2 (bispecific antibody)
chain 1: B2 chain 1 with G183D, G217K, S225T
chain 2: B2 chain 2
chain 3: not shown
notes: Three-chain diabody with Fc; also called 5T4 x CD3 mAb 1 M2 DART-B-type diabody
B5: 5T4-M1 (bispecific antibody)
chain 1: B2 chain 1 with G183D, S225T
chain 2: B2 chain 2
chain 3: not shown
notes: Three-chain diabody with Fc; also called 5T4 x CD3 mAb 1 M1 DART-B-type diabody

Experiments:
[1] = target: T2, CD3 (as used for the BIACORE kinetics of Table 11) (UniProt P07766 23-126); assay: SPR (BIACORE)
T2 construct: CD3 mAb 1 is described as an anti-human CD3 antibody
Description: Variants of the CD123×CD3 DART-A-type diabody (designated DART-A-WT; amino acid sequences provided above) were generated comprising the VH and VL Domains of the identified scFvs. Thus, a panel of DART-A-type diabodies, designated DART-A-M1-DART-A-M26, comprising vCD3-Binding Domains (such vCD3-Binding Domains being respectively designated “CD3 mAb 1 M1-CD3 mAb 1 M26”) were generated. The CD3-binding kinetics of DART-A-M1-DART-A-M26 were measured by BIACORE® and compared to DART-A-WT. Table 11 summarizes the CD3-binding kinetics of DART-A-WT and the DART-A-type diabodies comprising the vCD3-Binding Domains of CD3 mAb 1 M1-CD3 mAb 1 M26, ranked by kₐ (R denotes kₐ, kd, or kD ratio of variant DART-A-type diabody (comprising a vCD3-Binding Domain) to DART-A-WT (comprising the rCD3-Binding Domain of CD3 mAb 1)).

[2] = target: CD3 on T-cells (UniProt P07766 23-207); assay: cell-based or functional assay
[3] = target: T1, 5T4 on A498 cells; assay: Flow cytometry on A498 cells; detection with biotinylated anti-E/K-coil antibody and streptavidin-PE
Description: FIG. 9A-9B show the ability of DART-B-type diabodies to bind to Disease Antigens. […] Binding was detected using biotinylated antibody specific for the diabodies' E/K coils and streptavidin-phycoerythrin (PE).
The ability of such diabodies to bind to their respective Disease Antigen (i.e., CD123 or 5T4) on the surface of MOLM-13 leukemia (CD123) or A-498 kidney carcinoma (5T4) target cancer cells was assessed using FACS. Briefly, cells were incubated with the diabody molecules (in FACS buffer containing 10% human AB serum) in microtiter plates. The cells were washed and incubated with biotin-conjugated mouse anti-EK-coil antibody that recognizes the E-coil/K-coil (EK) Heterodimer-Promoting Domain of the diabodies mixed with streptavidin-phycoerythrin.

[4] = target: soluble human CD3 (human, UniProt P07766 23-126); assay: SPR (BIAcore), diabody over immobilized human CD3
Description: The ability of the CD123-binding diabodies: CD123-WT, CD123-M1, CD123-M2 and CD123-M18 to bind to human CD3 and CD123 was also evaluated using BIAcore®. […] Table 14 presents the calculated kₐ, kd and KD from these studies.
The ability of the 5T4-binding diabodies: 5T4-WT, 5T4-M1, 5T4-M2 and 5T4-M18 to bind to CD3 was also evaluated using BIAcore®, as described above. Table 15A presents the calculated kₐ, kd and KD.

T2 sequence (P07766 23-126): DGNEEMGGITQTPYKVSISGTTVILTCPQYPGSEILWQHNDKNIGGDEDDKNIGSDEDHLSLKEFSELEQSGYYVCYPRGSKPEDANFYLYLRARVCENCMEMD
soluble human CD3, sequence (P07766 23-126): as above
CD3 on T-cells, sequence (P07766 23-207): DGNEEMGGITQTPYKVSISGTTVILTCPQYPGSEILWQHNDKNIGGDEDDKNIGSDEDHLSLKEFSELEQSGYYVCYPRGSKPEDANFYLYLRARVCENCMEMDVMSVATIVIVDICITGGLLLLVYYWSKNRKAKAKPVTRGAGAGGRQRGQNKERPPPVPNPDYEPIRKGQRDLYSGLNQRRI

| Binder | Kd [1] [nM] | R (KD ratio to DART-A-WT) [1] | R (ka ratio to DART-A-WT) [1] | R (kd ratio to DART-A-WT) [1] | koff [1] [s⁻¹] | kon [1] [M⁻¹ s⁻¹] | EC50 of cytolysis at 18 hours (CTL assay, Pan-T-cells and MOLM-13, E:T = 5:1) [2] [ng/mL] | EC50 of cytolysis at 42 hours (CTL assay, Pan-T-cells and MOLM-13, E:T = 5:1) [2] [ng/mL] | R: ratio of 18 hour EC50 to DART-A-WT (CTL assay, Pan-T-cells and MOLM-13, E:T = 5:1) [2] [ratio] | R: ratio of 42 hour EC50 to DART-A-WT (CTL assay, Pan-T-cells and MOLM-13, E:T = 5:1) [2] [ratio] | max % CytoTox at 18 hours (CTL assay, Pan-T-cells and MOLM-13, E:T = 5:1) [2] [%] | max % CytoTox at 42 hours (CTL assay, Pan-T-cells and MOLM-13, E:T = 5:1) [2] [%] | EC50 (read off the curve) [3] [nM] | Kd [4] [nM] | koff [4] [s⁻¹] | kon [4] [M⁻¹ s⁻¹] |
| --- | --- | --- | --- | --- | --- | --- | --- | --- | --- | --- | --- | --- | --- | --- | --- | --- |
| B1 | 54.4 | 6.7 | 0.6 | 4.3 | 0.0174 | 319000 | 0.444 | 0.078 | 5.6 | 27.9 | 44.2 | 28.2 | – | – | – | – |
| B2 | – | – | – | – | – | – | – | – | – | – | – | – | ~1 | 36 | 0.0054 | 150000 |
| B3 | – | – | – | – | – | – | – | – | – | – | – | – | ~1 | 453 | 0.034 | 75000 |
| B4 | – | – | – | – | – | – | – | – | – | – | – | – | ~1 | 118 | 0.041 | 350000 |
| B5 | – | – | – | – | – | – | – | – | – | – | – | – | ~1 | 326 | 0.031 | 95000 |
